The results in this text go back to US20260125477A1.

The target in assay [1] is human B7-H3 on B7-H3+ cells (human) (UniProt Q5ZPR3). Kind of assay: FACS, A549 cells (B7-H3+ tumor cells). (In flow cytometry, cells or beads pass a laser one at a time.)
The target is the same in assay [2]. Briefly: FACS, HepG2 cells (B7-H3+ tumor cells).
Assay [3] has the same target. Kind of assay: FACS, MCF-7 cells (B7-H3+ tumor cells).
Assay [4] shares this target. Briefly: FACS, SK-OV-3 cells (B7-H3+ tumor cells).
Assay [5] has the same target. Briefly: FACS, NCI-H520 cells (B7-H3+ tumor cells).
Assay [6] shares this target. Briefly: FACS, HUVEC cells (human B7-H3-expressing).
The target is the same in assay [7]. Briefly: FACS, human dermal fibroblasts (B7-H3+ normal cells).
The target is the same in assay [8]. Briefly: FACS, NCI-H520 cells (B7-H3+ tumor cells) [Continued) C].
Assay [9] shares this target. Briefly: FACS, human prostate smooth muscle cells (B7-H3+ normal cells).
Assay [10] has the same target. Kind of assay: FACS, mature human dendritic cells derived from PBMC (B7-H3+ normal cells).
Assay [11] has the same target. Briefly: FACS, NCI-H520 cells (B7-H3+ tumor cells) [Continued) D].

Chain of human B7-H3 on B7-H3+ cells (human) (Q5ZPR3 29-534): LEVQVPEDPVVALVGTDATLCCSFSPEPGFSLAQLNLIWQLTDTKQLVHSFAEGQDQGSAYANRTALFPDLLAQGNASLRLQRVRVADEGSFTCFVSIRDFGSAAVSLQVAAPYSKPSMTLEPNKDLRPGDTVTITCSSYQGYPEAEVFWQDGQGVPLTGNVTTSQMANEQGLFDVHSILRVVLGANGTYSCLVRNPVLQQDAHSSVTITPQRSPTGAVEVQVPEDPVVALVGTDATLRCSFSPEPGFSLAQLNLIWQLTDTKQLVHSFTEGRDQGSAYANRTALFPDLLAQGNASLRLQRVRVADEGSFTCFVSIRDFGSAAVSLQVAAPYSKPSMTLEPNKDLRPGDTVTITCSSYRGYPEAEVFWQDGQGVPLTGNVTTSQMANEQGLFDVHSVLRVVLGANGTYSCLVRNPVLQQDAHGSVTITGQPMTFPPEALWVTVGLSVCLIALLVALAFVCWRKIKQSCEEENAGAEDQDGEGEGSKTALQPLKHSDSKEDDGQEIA

B1: 6B5 (antibody, human IgG1, kappa, V domains shown)
VH: QVQLVESGPGLVKPSQTLSLTCTVSDGSISSGGYYWSWIRQHPGKGLEWIGYIYYSGGTYYSPSLKSRVTISVDTSKNQFSLKLTSVTAADTAVYYCARRAGYSSSFDSWGQGILVTVSS
VL: EIVLTQSPLSLPVTPGEPASISCRSSQSLLYSNGYTYLDWYLQKPGQSPQFLIYLGFNRASGVPDRFSGSGSGTDFTLKISRVEAEDVGVYYCMQGLQTPYTFGQGTKLEIKR
The term EC50 (read off the curve) denotes the concentration giving half of the maximal effect. A higher EC50 (read off the curve) goes with a less potent agent. For B1, the concentration giving a half-maximal response (EC50 (read off the curve)) worked out at 2 µg/mL in assay [1]; 0.6 µg/mL in assay [2]; 0.4 µg/mL in [3]; 0.7 µg/mL in assay [4]; 0.3 µg/mL in [5]; 0.4 µg/mL in assay [6]. Further, the half-maximal effective concentration (EC50 (read off the curve)) in [7] was 0.4 µg/mL; in assay [8], 0.1 µg/mL; in [9] it was 0.3 µg/mL; in [10], 1 µg/mL.

B2: 10D7 (antibody, human IgG1, kappa, V domains shown)
VH: QVQLVQSGPGLVKPSETLSLTCTVSGGSISRSSYYWGWIRQPPGKGLEWIGNIFYAGSTYYNPSLKSRVTISVDTSKNQFSLKLSSVTAADTAVYYCARRITGTTGWFDPWGQGTLVTVSS
VL: DIQLTQSPSSLSASVGDRVTITCRASQGIRNDLGWYQQKPGKAPKLLIYAASTLQSGVPSRFSGSGSGTDFTLTISSLQPEDFATYYCLQDYNYPRTFGQGTKVEIKR
For the molecule B2, the half-maximal effective concentration (EC50 (read off the curve)) in [2] was determined as 0.4 µg/mL; in [4], 0.7 µg/mL; in [5], 0.3 µg/mL; in assay [6] it was 0.05 µg/mL; in assay [11], 0.03 µg/mL; in assay [10], 0.06 µg/mL.

B3: 6B5-Mut (antibody, human IgG1, kappa)
heavy: QVQLVESGPGLVKPSQTLSLTCTVSDGSISSGGYYWSWIRQHPGKGLEWIGYIYYSGGTYYSPSLKSRVTISVDTSKNQFSLKLTSVTAADTAVYYCARRAGYSSSFDSWGQGILVTVSSASTKGPSVFPLAPSSKSTSGGTAALGCLVKDYFPEPVTVSWNSGALTSGVHTFPAVLQSSGLYSLSSVVTVPSSSLGTQTYICNVNHKPSNTKVDKRVEPKSCDKTHTCPPCPAPELVGGPSVFLLPPKPKDTLMISRTPEVTCVVVDVSHEDPEVKFNWYVDGVEVHNAKTKPPEEQYNSTLRVVSVLTVLHQDWLNGKEYKCKVSNKALPAPIEKTISKAKGQPREPQVYTLPPSREEMTKNQVSLTCLVKGFYPSDIAVEWESNGQPENNYKTTPLVLDSDGSFFLYSKLTVDKSRWQQGNVFSCSVMHEALHNHYTQKSLSLSPGK
light: EIVLTQSPLSLPVTPGEPASISCRSSQSLLYSNGYTYLDWYLQKPGQSPQFLIYLGFNRASGVPDRFSGSGSGTDFTLKISRVEAEDVGVYYCMQGLQTPYTFGQGTKLEIKRTVAAPSVFIFPPSDEQLKSGTASVVCLLNNFYPREAKVQWKVDNALQSGNSQESVTEQDSKDSTYSLSSTLTLSKADYEKHKVYACEVTHQGLSSPVTKSFNRGEC
Consider B3, for which the concentration giving a half-maximal response (EC50 (read off the curve)) is 0.4 µg/mL in assay [6] and 0.2 µg/mL in assay [8].

B4: Enoblituzumab (antibody, human IgG1, kappa, V domains shown)
VH: EVQLVESGGGLVQPGGSLRLSCAASGFTFSSFGMHWVRQAPGKGLEWVAYISSDSSAIYYADTVKGRFTISRDNAKNSLYLQMNSLRDEDTAVYYCGRGRENIYYGSRLDYWGQGTTVTVSS
VL: DIQLTQSPSFLSASVGDRVTITCKASQNVDTNVAWYQQKPGKAPKALIYSASYRYSGVPSRFSGSGSGTDFTLTISSLQPEDFATYYCQQYNNYPFTFGQGTKLEIKR
With B4, the 50% effective concentration (EC50 (read off the curve)) was 0.3 µg/mL in assay [5], 0.2 µg/mL in [7], 0.1 µg/mL in [9] and 0.3 µg/mL in assay [10].

B5: 10D7-Mut (antibody, human IgG1, kappa)
heavy: QVQLVQSGPGLVKPSETLSLTCTVSGGSISRSSYYWGWIRQPPGKGLEWIGNIFYAGSTYYNPSLKSRVTISVDTSKNQFSLKLSSVTAADTAVYYCARRITGTTGWFDPWGQGTLVTVSSASTKGPSVFPLAPSSKSTSGGTAALGCLVKDYFPEPVTVSWNSGALTSGVHTFPAVLQSSGLYSLSSVVTVPSSSLGTQTYICNVNHKPSNTKVDKRVEPKSCDKTHTCPPCPAPELVGGPSVFLLPPKPKDTLMISRTPEVTCVVVDVSHEDPEVKFNWYVDGVEVHNAKTKPPEEQYNSTLRVVSVLTVLHQDWLNGKEYKCKVSNKALPAPIEKTISKAKGQPREPQVYTLPPSREEMTKNQVSLTCLVKGFYPSDIAVEWESNGQPENNYKTTPLVLDSDGSFFLYSKLTVDKSRWQQGNVFSCSVMHEALHNHYTQKSLSLSPGK
light: DIQLTQSPSSLSASVGDRVTITCRASQGIRNDLGWYQQKPGKAPKLLIYAASTLQSGVPSRFSGSGSGTDFTLTISSLQPEDFATYYCLQDYNYPRTFGQGTKVEIKRTVAAPSVFIFPPSDEQLKSGTASVVCLLNNFYPREAKVQWKVDNALQSGNSQESVTEQDSKDSTYSLSSTLTLSKADYEKHKVYACEVTHQGLSSPVTKSFNRGEC
As to B5, the concentration for a half-maximal effect (EC50 (read off the curve)) worked out at 0.05 µg/mL in assay [6] and 0.03 µg/mL in assay [11].
